B1: HDV Ribozyme (parent)
chain: GGCCGGCAUGGUCCCAGCCUCCUCGCUGGCGCCGGCUGGGCAACAUUCCGAGGGGACCGUCCCCUCGGUAAUGGCGAAUGGGACCCA

Variants of: B1
Test: self-cleavage, relative activity (ratio to wild type); higher = more cleavage; co-transcriptional

Going from G1A U9C to C14U G50U, the self-cleavage rises from 0.369 to 1.09.

Going from C44A A70C to C3U C57A, the self-cleavage rises from 0.465 to 0.9.

First: U65G C85G
Second: C41A U60G
The self-cleavage of the first is higher: 0.692 for the first, 0.522 for the second.

Going from C15A U65G to C7A U79G, the self-cleavage falls from 0.653 to 0.192.

Going from G38C U60C to G6A G28A, the self-cleavage falls from 0.231 to 0.0817.

Compared with C14G U69G, U46C C85U is higher in self-cleavage: 0.604 for the first, 0.615 for the second.

Going from C4U C48U to G11U G76C, the self-cleavage falls from 0.931 to 0.532.

First: U65A C84U
Second: C36A A56C
The self-cleavage of the first is higher: 0.799 for the first, 0.131 for the second.

Compared with C36U C62A, C21U A42G is lower in self-cleavage: 0.53 for the first, 0.0652 for the second.

Compared with C58A G67U, A8U G25A is lower in self-cleavage: 0.946 for the first, 0 for the second.

Compared with U46A C85U, C14G G59A is higher in self-cleavage: 0.675 for the first, 0.962 for the second.

First: G53C C85G
Second: C58G A87C
The self-cleavage of the first is higher: 1.01 for the first, 0.919 for the second.

First: C30A G35C
Second: U27A C49U
The self-cleavage of the first is lower: 0.0678 for the first, 0.88 for the second.

Going from G39U U69C to A43U C86G, the self-cleavage falls from 0.769 to 0.325.

First: C32G G35C
Second: U27G C41A
The self-cleavage of the first is lower: 0.0386 for the first, 0.969 for the second.

Going from A78G U79C to C13U C48U, the self-cleavage rises from 0.225 to 0.642.

Compared with C21A G28U, C57U C62A is higher in self-cleavage: 0.196 for the first, 0.941 for the second.

Going from G29C C57U to G17A G76U, the self-cleavage rises from 0.0604 to 0.863.

Compared with C32U G34U, U9A C64A is higher in self-cleavage: 0.215 for the first, 1.04 for the second.

First: C13G C66G
Second: A43U C85A
The self-cleavage of the first is lower: 0.135 for the first, 0.499 for the second.

Compared with C3A U65C, G29A C85G is lower in self-cleavage: 0.602 for the first, 0.119 for the second.

Going from G6U G52U to G39U C85G, the self-cleavage rises from 0.397 to 0.69.

Going from U69A C85U to C44U C85G, the self-cleavage falls from 0.831 to 0.673.

Compared with C4G A70U, G54A C63A is higher in self-cleavage: 0.35 for the first, 0.831 for the second.

Going from C4U C85A to G5C C14U, the self-cleavage rises from 0.341 to 0.506.

Going from C15U G82A to C7A C57G, the self-cleavage rises from 0.325 to 0.571.

First: C19U G40U
Second: U46A C66U
The self-cleavage of the first is lower: 0.0839 for the first, 0.743 for the second.

Going from C62G G76U to A71C C84G, the self-cleavage falls from 1.03 to 0.415.

Going from C3G U69C to G5C A56U, the self-cleavage falls from 0.653 to 0.314.

First: C49A G54A
Second: G59A A87U
The self-cleavage of the first is lower: 0.589 for the first, 0.974 for the second.

Compared with C36G A45G, G25A C36A is lower in self-cleavage: 0.185 for the first, 0.0554 for the second.

Going from C3G U60G to U9G G25A, the self-cleavage falls from 0.773 to 0.0755.

First: C33A A83U
Second: C19U G73C
The self-cleavage of the first is higher: 0.217 for the first, 0.0479 for the second.

Going from G34A G59C to G50C U69G, the self-cleavage rises from 0.225 to 1.05.

Compared with A71U G76U, C44G G55A is lower in self-cleavage: 1.17 for the first, 0.787 for the second.

Going from A43C C49G to U47A C61U, the self-cleavage rises from 0.287 to 0.814.

Going from G39C G40C to U46C U47C, the self-cleavage rises from 0.215 to 0.743.

First: C44G G67C
Second: U23A C84A
The self-cleavage of the first is lower: 0.755 for the first, 0.944 for the second.

Compared with G74U G76C, C4G U23C is lower in self-cleavage: 0.831 for the first, 0.208 for the second.

Compared with G67C, C22A G67C is lower in self-cleavage: 0.976 for the first, 0.337 for the second.

Compared with C21U G55C, G1U G54C is higher in self-cleavage: 0.18 for the first, 0.361 for the second.

Compared with G28U G52A, U47A C84G is higher in self-cleavage: 0.0733 for the first, 0.831 for the second.

Compared with G6A C7U, C21U C61A is lower in self-cleavage: 0.283 for the first, 0.176 for the second.

First: C21G A70G
Second: A16C C62G
The self-cleavage of the first is lower: 0.185 for the first, 0.403 for the second.

Going from U12C C62U to C15A G34C, the self-cleavage falls from 0.348 to 0.256.

First: G25C G80A
Second: G1U C84G
The self-cleavage of the first is lower: 0.0744 for the first, 0.297 for the second.

Compared with C18A A83G, C13U G28U is higher in self-cleavage: 0.0443 for the first, 0.0615 for the second.

Going from G38A G59C to C3G C66U, the self-cleavage rises from 0.0256 to 0.715.

Going from C61U G74C to G73U A87G, the self-cleavage rises from 0.253 to 0.452.

Compared with G28C U69C, G17A C33U is higher in self-cleavage: 0.101 for the first, 0.566 for the second.

First: U9C C84A
Second: G1U C86A
The self-cleavage of the first is higher: 0.65 for the first, 0.32 for the second.

First: G29C G52A
Second: G39A A42G
The self-cleavage of the first is higher: 0.0615 for the first, 0.0292 for the second.

Going from G25C G35A to C3A G50U, the self-cleavage rises from 0.0346 to 0.754.

Compared with C58G U60G, G81C A83C is lower in self-cleavage: 0.532 for the first, 0.222 for the second.

Going from C18U G38A to G5U C24G, the self-cleavage falls from 0.176 to 0.

First: A70C C85A
Second: G73A A83G
The self-cleavage of the first is higher: 0.883 for the first, 0.511 for the second.

Compared with G10U G31A, C13G G28C is lower in self-cleavage: 0.29 for the first, 0.0504 for the second.

First: G40A G52C
Second: G10A U27A
The self-cleavage of the first is higher: 0.986 for the first, 0.587 for the second.

Compared with A8U G11C, C21G A77U is lower in self-cleavage: 0.0978 for the first, 0.0426 for the second.

Compared with C26U U65G, A8U G50A is lower in self-cleavage: 1.02 for the first, 0.739 for the second.

Going from C24G to G59A U79A, the self-cleavage rises from 0.13 to 0.884.

First: G6U G31A
Second: G10U G54A
The self-cleavage of the first is lower: 0.282 for the first, 0.735 for the second.

Compared with C7U C13U, C24G C62A is lower in self-cleavage: 0.332 for the first, 0.0272 for the second.

First: G1C G34A
Second: U60C G74C
The self-cleavage of the first is lower: 0.0405 for the first, 0.217 for the second.

Compared with C32U G55A, A77C G80C is lower in self-cleavage: 0.967 for the first, 0.179 for the second.

Going from C64U G80U to G74U C85G, the self-cleavage rises from 0.247 to 0.617.

First: C22A U23G
Second: C19A C22A
The self-cleavage of the first is lower: 0 for the first, 0.112 for the second.

Going from C48G C62G to G11C A83C, the self-cleavage falls from 0.269 to 0.158.

First: U20C G52U
Second: A45G G81A
The self-cleavage of the first is lower: 0.145 for the first, 0.435 for the second.

Compared with A8G C18A, C48U G80C is higher in self-cleavage: 0.0875 for the first, 0.243 for the second.

Compared with U12A C49U, C22A C24U is lower in self-cleavage: 0.499 for the first, 0.0361 for the second.

Going from G40A C49U to C22U G34U, the self-cleavage falls from 0.95 to 0.145.

Compared with C75U C85A, U20A C32G is higher in self-cleavage: 0.0959 for the first, 0.111 for the second.

First: U23C G76U
Second: C7G C33A
The self-cleavage of the first is higher: 1.14 for the first, 0.196 for the second.

First: C3G G80C
Second: A71U G73U
The self-cleavage of the first is lower: 0.0665 for the first, 0.237 for the second.

First: G29A A83C
Second: U47A G50U
The self-cleavage of the first is lower: 0.148 for the first, 1.18 for the second.

First: C13U C64U
Second: G54A C58A
The self-cleavage of the first is lower: 0.554 for the first, 0.773 for the second.

Going from U47A G82A to G38U G82A, the self-cleavage falls from 0.298 to 0.0886.

Compared with G55A A77C, A8G G50A is higher in self-cleavage: 0.302 for the first, 1.03 for the second.

Compared with C18A C30A, G10A C18G is lower in self-cleavage: 0.141 for the first, 0.0817 for the second.

Compared with U69A G80A, G28U G35C is lower in self-cleavage: 0.434 for the first, 0.13 for the second.

Going from G38A G55C to U46A C61U, the self-cleavage rises from 0.218 to 0.61.

Compared with U60A C66U, C41U A51C is lower in self-cleavage: 1.12 for the first, 0.916 for the second.

For C13U C84U, the self-cleavage was 0.361.

From the RNAGym collection of RNA variant scans (doi:10.7554/elife.80360)
